Results as given in PMC12153337, “A temperature-driven DNA discrimination strategy to distinguish E. coli DNA and phage 5hmC-modified DNA” (Nucleic Acids Research, 2025).
Changes are numbered by the printed parent chain. Numbers in names are those of the source.

Experiments:
[1] = target: the molecule itself; test: native gel or EMSA; native gel electrophoresis of purified DexA after SEC, room temperature
[2] = target: the molecule itself; test: cryo-EM structure; single-particle cryo-EM, 2D classification of conformers; 5 μM, incubated at 37°C for 1 h
[3] = target: the molecule itself; test: SEC; Superdex 200 HiLoad 26/600, PBS buffer, room temperature 22°C; size estimated from the elution volume
[4] = target: the molecule itself; test: SEC-MALS; Superdex 75 10/300 GL, 0.5 ml/min, 25°C

B1: bacteriophage T4 exonuclease DexA (enzyme, UniProt P04536 1-227, looked up)
chain: MFDFIIDFETMGSGEKAAVIDLAVIAFDPNPEVVETFDELVSRGIKIKFDLKSQKGHRLFTKSTIEWWKNQSPEARKNIAPSDEDVSTIDGIAKFNDYINAHNIDPWKSQGWCRGMSFDFPILVDLIRDIQRLNGVSENELDTFKLEPCKFWNQRDIRTRIEALLLVRDMTTCPLPKGTLDGFVAHDSIHDCAKDILMMKYALRYAMGLEDAPSEEECDPLSLPTKR
notes: DexA (dexA gene product), 3'-5' exonuclease of bacteriophage T4, amplified from the T4 genome; 26.0 kDa per monomer; Exists in a dimer-tetramer equilibrium that depends on temperature, so copies is left empty; also called ExoD; wild-type DexA; source: E. coli BL21(DE3), pET46, purified (Ni-NTA, SEC)
- stoichiometry N [1]: 4
- stoichiometry N [2]: 2
- stoichiometry N [3]: ≥ 2

B2: DexA^D181A/S72A (enzyme, bacteriophage T4, UniProt P04536 1-227, looked up)
chain: B1 chain with S72A, D181A
notes: DexA of bacteriophage T4 with D181A and S72A, made by site-directed mutagenesis of the dexA plasmid; Full length is said of the native protein only; the mutant was made from the same plasmid; also called contact 1 mutant; source: E. coli BL21(DE3), pET46, purified (Ni-NTA, SEC)
- binding result [4]: binds

B3: DexA^S87A/D90A (enzyme, bacteriophage T4, UniProt P04536 1-227, looked up)
chain: B1 chain with S87A, D90A
notes: DexA of bacteriophage T4 with S87A and D90A, made by site-directed mutagenesis of the dexA plasmid; Full length is said of the native protein only; the mutant was made from the same plasmid; also called dimeric mutant; contact 2 mutant; source: E. coli BL21(DE3), pET46, purified (Ni-NTA, SEC)
- stoichiometry N [4]: 2
